In article PMC5789848, “HTLV-1 Tax plugs and freezes UPF1 helicase leading to nonsense-mediated mRNA decay inhibition”:

Tests used:
[1] = molecular target: T1, UPF1-HD (Homo sapiens, UniProt Q92900-2 295-914); assay: EMSA; UPF1-HD 0-10 nM, RNA 1 nM; BLI: 20 mM HEPES pH 7.5, 150 mM K acetate, 2 mM Mg acetate, 1 mM DTT, 6.3% glycerol, 0.1% NP-40; EMSA: 20 mM MES pH 6.0, 150 mM K acetate, 2 mM DTT, 0.2 ug/ul BSA, 6% glycerol, 30 C; pull-down: BLI-like buffer, 30 C then 4 C, 200 mM NaCl wash; settings: protein: recombinant; tags: C-terminal His6 (CBP N-terminal and/or His6 per Methods); label: 32P; single strand
T1 sequence: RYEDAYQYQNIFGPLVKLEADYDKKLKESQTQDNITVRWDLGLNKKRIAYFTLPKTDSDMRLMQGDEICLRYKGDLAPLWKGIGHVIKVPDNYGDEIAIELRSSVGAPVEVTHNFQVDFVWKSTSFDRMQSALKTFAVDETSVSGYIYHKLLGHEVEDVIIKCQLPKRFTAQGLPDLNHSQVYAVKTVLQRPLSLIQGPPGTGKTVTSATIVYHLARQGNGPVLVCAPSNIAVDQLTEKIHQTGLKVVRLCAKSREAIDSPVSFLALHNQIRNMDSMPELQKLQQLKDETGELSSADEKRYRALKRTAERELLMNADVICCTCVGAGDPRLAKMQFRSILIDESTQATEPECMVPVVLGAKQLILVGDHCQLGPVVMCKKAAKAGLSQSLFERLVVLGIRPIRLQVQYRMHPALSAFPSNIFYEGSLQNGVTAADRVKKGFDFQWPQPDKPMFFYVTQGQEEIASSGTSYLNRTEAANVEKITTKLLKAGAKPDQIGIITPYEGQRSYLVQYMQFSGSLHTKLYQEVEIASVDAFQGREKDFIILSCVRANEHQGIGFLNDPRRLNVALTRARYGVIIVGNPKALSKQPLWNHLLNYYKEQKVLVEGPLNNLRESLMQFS

[2] = molecular target: T1, UPF1-HD; assay: pull-down; 200 mM NaCl; BLI: 20 mM HEPES pH 7.5, 150 mM K acetate, 2 mM Mg acetate, 1 mM DTT, 6.3% glycerol, 0.1% NP-40; EMSA: 20 mM MES pH 6.0, 150 mM K acetate, 2 mM DTT, 0.2 ug/ul BSA, 6% glycerol, 30 C; pull-down: BLI-like buffer, 30 C then 4 C, 200 mM NaCl wash; settings: protein: recombinant; tags: C-terminal His6 (CBP N-terminal and/or His6 per Methods); label: 3' biotin (BtnTg); single strand

B1: 30-mer ssRNA (EMSA) (ssRNA)
RNA: CGUCCAUCUGGUCAUCUAGUGAUAUCAUCG
binding result [1]: binds

B2: 30-mer ssRNA 3'-biotin (pull-down) (ssRNA)
RNA: B1 RNA
binding result [2]: binds
